Experimental data from US9096835B2, “DNA polymerase” (Medical Research Council, priority 2003, dated 2015).
Where “and” joins values, the source holds several entries; their conditions need not be identical. Equal values may be shown once. Entries after “also recorded” stand apart in the source; their conditions may differ.

Experiments:
Type in all cases: biochemical
[1] = tested on: template containing a cis-syn cyclobutane thymine-thymine dimer (CPD); assay: Translesion replication assay (primer extension), CPD; details: gel-extension assay, 60° C.
Procedure: Template primers 22 (undamaged) or 23 (containing a synthetic abasic site) were synthesized by Lofstrand Laboratories (Gaithersburg, Md.). Template primer 24 (containing a single cis-syn thymine dimer), was synthesized as described (34). Primer 25 was ^32P-labeled and annealed to one of the three templates 22, 23, 24 (at a primer template ratio of molar 1:1.5) and extended in 40 mM Tris.HCl at pH 8.0, 5 mM MgCl2, 100 μM of each dNTP, 10 mM DTT, 250 μg/ml BSA, 2.5% glycerol, 10 nM primer-template DNA and 0.1 Unit of polymerase at 60° C. for various times.
Primer extension assays were essentially as described in (Ghadessy et al., 2004). Briefly, undamaged oligonucleotides and a 51mer containing a synthetic abasic site were synthesized by Lofstrand Laboratories (Gaithersburg, Md.) using standard techniques and were gel purified prior to use. A 20mer primer (LES—20 P) with the sequence 5′-[…]-3′ (SEQ ID NO: 99) was 5′-labeled with [^32P]ATP (5000 Ci/mmole; 1 Ci=37 GBq) (Pharmacia) using T4 polynucleotide kinase (Invitrogen, Carlsbad Calif.). Radiolabeled primer-template DNAs were prepared by annealing the 5′[^32P] labeled 20mer primer to one of the two following 51mer templates (at a primer template ratio of molar 1:1.5). 1) undamaged DNA (UNDT51T); 5′-AGCTACCATGCCTGCACGAATTCGGCATCCGTCGCGACCACGGTCGCAGCG-3′ (SEQ ID NO: 100); 2) an oligo (LABA51T) containing a synthetic abasic site (indicated as an X in bold font); 5′-AGCTACCATGCCTGCACGACA XCG GCATCCGTCGCGACCACGGTCGCAGCG-3′ (SEQ ID NO: 101). Standard replication reactions of 10 contained 40 mM Tris.HCl at pH 8.0, 5 mM MgCl2, 100 μM of each ultrapure dNTP (Amersham Pharmacia Biotech, NJ), 10 mM DTT, 250 μg/ml BSA, 2.5% glycerol, 10 nM 5′[32P] primer-template DNA and 0.1 Unit of polymerase. After incubation at 60° C. for various times reactions were terminated by the addition of 10 μl of 95% formamide/10 mM EDTA and the samples heated to 100° C. for 5 min. Reaction mixtures (5 μl) were subjected to 20% polyacrylamide/7 M Urea gel electrophoresis and replication products visualized by PhosphorImager analysis.

[2] = tested on: primers with 3′ transversion mismatches; assay: Mismatch extension PCR assay; details: G•A, C•C, G•G mismatched primers
Procedure: (§1) A PCR assay was used to screen and rank clones. Briefly, clones were normalized for activity in PCR with matched primers 3, 4 and activity with mismatched primers 1 and 2 (1 μM each) determined at minimal cycle number (15-25 cycles). Extension capability for different mismatches was determined by the same assay using mismatch primers 2 (C•C mismatch), 5 (A•A mismatch), 6 (G•G mismatch), 7 (G•A mismatch) with matched primer 3 or primer 1 (A•G mismatch) with matched primer 4. Incorporation of unnatural substrates in 50 cycle PCR was carried out using standard conditions and 50 μM […] dNTPs (Promega) or 50 μM FITC-12-dATP (Perkin-Elmer), Rhodamine-5-dUTP (Perkin-Elmer) or Biotin-16-dUTP (Roche) with equivalent amounts of the other 3 dNTPs (all 50 μM). Long PCR was carried out using a two-step cycling protocol as described (22) 94° C. for 2 minutes, followed by 20 cycles of (94° C. 15 sec, 68° C. 30 min) using 5 ng of phage λ DNA (New England Biolabs) template and either primers 9, 10, 11 with primer 12 or primer 13 with primers 10, 14.

[3] = tested on: primer-template duplex with matched or mismatched 3′ terminus; assay: Steady-state extension kinetics, gel-based assay; details: incorporated base is dCTP
Procedure: (§2) Kinetic parameters were determined using a gel-based assay essentially as described (16). Primers 15, 16, 17 (3′ base=G, C, A respectively) were ^32P-labeled and annealed to one of template strands 18, 19, 20 (template base=C, G, A respectively) or 21 (template base C different context). Duplex substrates were used at 50 nM final concentration in 1× Taq buffer with various concentrations of enzyme and dNTP. Reactions were carried out at 60° C. for times whereby <20% of primer-template was utilized at the highest concentration of dNTP.
(§3) Extension and incorporation kinetics of M1 and M4 for a selection of mismatches were measured using a gel-based steady-state kinetic assay (Goodman) (Tables 1 & 2). M1 and M4 respectively extend a C•C mispair 390 and 75-fold more efficiently than wtTaq. […] The gain in extension efficiency derives predominantly from increased relative Vmax values for the mutant polymerases, while Km for nucleotide substrates remains largely unchanged. For most DNA polymerases the relative efficiency of extending a given mispair (f0ext) is similar to the relative efficiency of forming it (finc) (Goodman 1993, Goodman 1990, Washington 2001). Indeed, M1 and M4 respectively incorporate dCTP opposite template base C 206- and 29-fold more efficiently than wtTaq (Table 2).

[4] = tested on: primer-template duplex, correct or incorrect incoming dNTP; assay: Steady-state single nucleotide incorporation kinetics, gel-based assay
Procedure: as §2, §3

[5] = PCR with all four dNTPs replaced by αS dNTPs; details: 50 cycle PCR, 50 μM αS dNTPs
Procedure: as §1

[6] = 3′-terminal base pair C · G (template base: 3′ primer base), matched

B1: M4: Taq mutant D58G, R74P, A109T, L245R, R343G, G370D, E520G, N583S, E694K, A743P; SEQ ID NO 2 (protein)
chain: MRGMLPLYEPKGRVLLVDGHHLAYRTFHALKGLTTSRGEPVQAVYGFAKSLLKALKEGGDAVIVVFDAKAPSFPHEAYGGYKAGRAPTPEDFPRQLALIKELVDLLGLTRLEVPGYEADDVLASLAKKAEKEGYEVRILTADKDLYQLLSDRIHVLHPEGYLITPAWLWEKYGLRPDQWADYRALTGDESDNLPGVKGIGEKTARKLLEEWGSLEALLKNLDRLKPAIREKILAHMDDLKLSWDRAKVRTDLPLEVDFAKRREPDRERLRAFLERLEFGSLLHEFGLLESPKALEEAPWPPPEGAFVGFVLSRKEPMWADLLALAAARGGRVHRAPEPYKALGDLKEARGLLAKDLSVLALREGLGLPPDDDPMLLAYLLDPSNTTPEGVARRYGGEWTEEAGERAALSERLFANLWGRLEGEERLLWLYREVERPLSAVLAHMEATGVRLDVAYLRALSLEVAEEIARLEAEVFRLAGHPFNLNSRDQLERVLFDELGLPAIGKTEKTGKRSTSAAVLGALREAHPIVEKILQYRELTKLKSTYIDPLPDLIHPRTGRLHTRFNQTATATGRLSSSDPNLQSIPVRTPLGQRIRRAFIAEEGWLLVALDYSQIELRVLAHLSGDENLIRVFQEGRDIHTETASWMFGVPREAVDPLMRRAAKTINFGVLYGMSAHRLSQELAIPYEEAQAFIKRYFQSFPKVRAWIEKTLEEGRRRGYVETLFGRRRYVPDLEARVKSVREPAERMAFNMPVQGTAADLMKLAMVKLFPRLEEMGARMLLQVHDELVLEAPKERAEAVARLAKEVMEGVYPLAVPLEVEVGIGEDWLSAKE
modifications: Mutant Thermus aquaticus DNA polymerase
[1]
  CPD bypass in primer extension: able to readily extend all of the primer to the 3′T of the dimer
[2]
  extension of 3′ transversion mismatches in PCR: greatly increased ability to extend; also recorded: generate amplification products
[3]; 3′-terminal base pair A · A (template base: 3′ primer base)
  Vmax: 8.5 % Min^−1
[3]; 3′-terminal base pair A · A
  Km: 32.9 µM
  Ratio of fext, fext (mutant polymerase)/fext (wtTaq): 5.7
  fext, f (mismatched 3′terminus)/f (matched terminus): 3.8 × 10^−6
[3]; 3′-terminal base pair A · G (template base: 3′ primer base)
  Vmax: 50.0 % Min^−1
[3]; 3′-terminal base pair A · G
  Km: 259 µM
  Ratio of fext, fext (mutant polymerase)/fext (wtTaq): 7.0
  fext, f (mismatched 3′terminus)/f (matched terminus): 1.5 × 10^−6
[3]; 3′-terminal base pair C · C (template base: 3′ primer base)
  Vmax: 11.1 % Min^−1
[3]; 3′-terminal base pair C · C
  Km: 36.6 µM
  Ratio of fext, fext (mutant polymerase)/fext (wtTaq): 75 and 75.3
  fext, f (mismatched 3′terminus)/f (matched terminus): 4.5 × 10^−6
[3]; [6]
  Km: 0.012 µM
  Vmax: 817.0 % Min^−1
[3]; 3′-terminal base pair G · A (template base: 3′ primer base)
  Vmax: 7.5 % Min^−1
[3]; 3′-terminal base pair G · A
  Km: 29 µM
  Ratio of fext, fext (mutant polymerase)/fext (wtTaq): 7.0
  fext, f (mismatched 3′terminus)/f (matched terminus): 3.8 × 10^−6
[3]; 3′-terminal base pair G · G (template base: 3′ primer base)
  Vmax: 70.6 % Min^−1
[3]; 3′-terminal base pair G · G
  Km: 107 µM
  Ratio of fext, fext (mutant polymerase)/fext (wtTaq): 7.6
  fext, f (mismatched 3′terminus)/f (matched terminus): 9.7 × 10^−6
[4]; base pair C: dCTP
  Km: 1390 µM
  Ratio of finc, finc (mutant polymerase)/finc (wtTaq): 29 and 29.22
  finc, f (incorrect dNTP)/f (correct dNTP): 1.13 × 10^−6
[4]; base pair C: dCTP (template base: incoming nucleotide)
  Vmax: 52.63 % Min^−1
[4]; base pair C: dGTP (template base: incoming nucleotide), correct dNTP
  Vmax: 335.42 % Min^−1
[4]; base pair C: dGTP, correct dNTP
  Km: 0.01 µM
[4]; base pair G: dATP
  Km: 158 µM
  Ratio of finc, finc (mutant polymerase)/finc (wtTaq): 2.18
  finc, f (incorrect dNTP)/f (correct dNTP): 1.80 × 10^−4
[4]; base pair G: dATP (template base: incoming nucleotide)
  Vmax: 1935.48 % Min^−1
[4]; base pair G: dCTP (template base: incoming nucleotide), correct dNTP
  Vmax: 817 % Min^−1
[4]; base pair G: dCTP, correct dNTP
  Km: 0.012 µM
[4]; base pair G: dGTP
  Km: 82.3 µM
  Ratio of finc, finc (mutant polymerase)/finc (wtTaq): 68.82
  finc, f (incorrect dNTP)/f (correct dNTP): 1.17 × 10^−4
[4]; base pair G: dGTP (template base: incoming nucleotide)
  Vmax: 656.46 % Min^−1
[4]; base pair G: dTTP
  Km: 5.1 µM
  Ratio of finc, finc (mutant polymerase)/finc (wtTaq): 1.1
  finc, f (incorrect dNTP)/f (correct dNTP): 1.82 × 10^−4
[4]; base pair G: dTTP (template base: incoming nucleotide)
  Vmax: 63.20 % Min^−1
[5]
  PCR amplification with all four αS dNTPs: to lesser extent
